Experimental data from patent publication US20230265151A1, “GIP/GLP1 CO-AGONIST COMPOUNDS” (priority 2020, published 2023).

What was measured:
human GIP receptor = biological target: T1, human GIP receptor (human, UniProt P48546 22-466); assay: SPA competition vs [125I]-GIP, hGIPR membranes
T1 construct: whole, on cells; also called hGIPR; human glucose-dependent insulinotropic polypeptide receptor
T1 sequence (looked up): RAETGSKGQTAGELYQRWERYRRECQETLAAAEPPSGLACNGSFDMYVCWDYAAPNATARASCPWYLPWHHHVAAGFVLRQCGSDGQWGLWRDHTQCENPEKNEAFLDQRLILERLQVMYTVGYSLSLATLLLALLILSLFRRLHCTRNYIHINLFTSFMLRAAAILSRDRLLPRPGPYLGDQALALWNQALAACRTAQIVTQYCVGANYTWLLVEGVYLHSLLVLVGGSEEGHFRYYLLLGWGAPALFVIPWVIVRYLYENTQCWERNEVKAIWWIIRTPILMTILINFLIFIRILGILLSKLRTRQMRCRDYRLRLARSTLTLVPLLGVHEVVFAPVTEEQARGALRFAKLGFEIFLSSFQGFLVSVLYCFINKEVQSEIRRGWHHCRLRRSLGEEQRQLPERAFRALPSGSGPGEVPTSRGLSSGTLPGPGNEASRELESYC

human glucagon receptor = biological target: T2, human glucagon receptor (human, UniProt P47871 26-477); assay: SPA competition vs [125I]-Gcg, hGcgR membranes
T2 construct: whole, on cells; also called hGCGR; hGcgR
Experimental: The binding buffer contains 25 mM 4-(2-hydroxyethyl)-1-piperazineethanesulfonic acid (HEPES), pH 7.4, 2.5 mM CaCl₂, 1 mM MgCh, 0.1% (w/v) bacitracin (Research Products), 0.003% (w/v) Polyoxyethylenesorbitan monolaurate (TWEEN®-20), and Roche Complete™ Protease Inhibitors without EDTA. […] Plates are sealed and mixed on a plate shaker (setting 6) for 1 minute and read with a PerkinElmer Trilux MicroBeta® scintillation counter after 12 hours of incubation/settling time at room temperature.
Data are analyzed using four-parameter (curve maximum, curve minimum, IC₅₀, Hill slope) nonlinear regression routines (Genedata Screener, version 12.0.4, Genedata AG, Basal, Switzerland). […] Values for Kᵢ are reported as the geometric mean, with error expressed as the standard error of the mean (SEM) and n is equal to the number of independent replicates (determined in assays performed on different days).

human GLP-1 receptor = biological target: T3, human GLP-1 receptor (human, UniProt P43220 24-463); assay: SPA competition vs [125I]-GLP-1, hGLP-1R membranes
T3 construct: whole, on cells; also called hGLP-1R; human glucagon-like peptide-1 receptor
Procedure, shortened: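 Competition binding in 25 mM HEPES pH 7.4, 2.5 mM CaCl₂, 1 mM MgCl₂, 0.1% bacitracin, 0.003% TWEEN-20, EDTA-free protease inhibitors. IC₅₀ from four-parameter nonlinear fit; Kᵢ given as geometric mean ± SEM, n = independent replicates on different days.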

T2 sequence (P47871 26-477): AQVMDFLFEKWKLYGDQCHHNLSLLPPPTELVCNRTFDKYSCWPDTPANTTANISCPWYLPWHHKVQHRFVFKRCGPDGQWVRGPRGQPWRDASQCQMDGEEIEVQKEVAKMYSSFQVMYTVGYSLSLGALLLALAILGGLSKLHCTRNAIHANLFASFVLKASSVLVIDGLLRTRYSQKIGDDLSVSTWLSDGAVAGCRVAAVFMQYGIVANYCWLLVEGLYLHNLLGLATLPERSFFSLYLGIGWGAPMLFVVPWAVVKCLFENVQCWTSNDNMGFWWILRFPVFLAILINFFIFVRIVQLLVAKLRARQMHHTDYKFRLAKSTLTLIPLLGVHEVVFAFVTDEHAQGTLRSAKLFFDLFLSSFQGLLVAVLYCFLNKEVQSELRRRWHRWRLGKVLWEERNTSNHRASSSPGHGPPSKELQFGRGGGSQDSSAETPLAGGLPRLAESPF

| Binder | Ki (human GIP receptor) | Ki (human glucagon receptor) | Ki (human GLP-1 receptor) |
| --- | --- | --- | --- |
| YXEGTXTSDXSIXLDXKAQXEFIXXLIEGGKSSGAPPPS (Aib2, αMeF(2F)6, Bip10, αMeL13, Orn16, K17(Z1), Aib20, D-Glu24, αMeY25, K31(Z1), C-term NH2; Z1=AEEA2-(γ-Glu)-CO-(CH2)12-CO2H) | 0.252 nM | 299 nM | 5.17 nM |
| YXEGTXTSDXSIXLDXKAQXEFIXXLIEGGKSSGAPPPS (Aib2, αMeF(2F)6, Nle10, αMeL13, Orn16, K17(Z1), Aib20, D-Glu24, αMeY25, K31(Z1), C-term NH2; Z1=AEEA2-(γ-Glu)-CO-(CH2)12-CO2H) | 0.11 nM | 737 nM | 0.872 nM |
| YXEGTXTSDXXIXLDXKAQXEFIXXLIKGGPSSGAPPPS (Aib2, αMeF(2F)6, 4Pal10, Aib11, αMeL13, Orn16, K17(Z1), Aib20, D-Glu24, αMeY25, K28(Z1), C-term NH2; Z1=AEEA2-(γ-Glu)-CO-(CH2)10-CH3) | 0.0195 nM | 75.5 nM | 0.325 nM |
| YXEGTXTSDXSIXLDXKAQXEXIXXLIEGGKSSGAPPPS (Aib2, αMeF(2F)6, 4Pal10, αMeL13, Orn16, K17(Z1), Aib20, 1Nal22, D-Glu24, αMeY25, K31(Z1), C-term NH2; Z1=AEEA2-(γ-Glu)-CO-(CH2)12-CO2H) | 0.263 nM | 4150 nM | 1.55 nM |
| YXEGTXTSDXSIXLDXKAQXEFIXXLIEGGKSSGAPPPS (Aib2, αMeF(2F)6, 4Pal10, αMeL13, Orn16, K17(Z1), Aib20, D-Glu24, αMeY25, K31(Z1), C-term NH2; Z1=AEEA2-(γ-Glu)-(4-(4-iodophenyl)butanoyl)) | 0.0629 nM | 711 nM | 0.471 nM |
| YXEGTXTSDKSIXLDXKAQXEXIXXLIEGGPSSGAPPPS (Aib2, αMeF(2F)6, K10(Z1), αMeL13, Orn16, K17(Z1), Aib20, αMeF22, D-Glu24, αMeY25, C-term NH2; Z1=AEEA2-(γ-Glu)-CO-(CH2)10-CH3) | 0.022 nM | 23.1 nM | 0.211 nM |
| YXEGTXTSDXXIXLDXKAQXEFIXXLIKGGPSSGAPPPS (Aib2, αMeF(2F)6, 4Pal10, Aib11, αMeL13, Orn16, K17(Z1), Aib20, D-Glu24 (printed e), αMeY25, K28(Z1), C-term NH2; Z1=AEEA-(γ-Glu)-(10-(4-carboxyphenoxy)decanoyl)) | 0.0578 nM | 238 nM | 1.22 nM |
| YXEGTXTSDXSIXLDXKAQXEFIXXLIEGGKSSGAPPPS (Aib2, αMeF(2F)6, 4Pal10, αMeL13, Orn16, K17(Z1), Aib20, D-Glu24, αMeY25, K31(Z1), C-term NH2; Z1=AEEA2-(γ-Glu)-CO-(CH2)10-CH3) | 0.0309 nM | 44.8 nM | 0.154 nM |
| YXEGTXTSDXSIXLDXKAQXXFIXXLIKGGPSSGAPPPS (Aib2, αMeF(2F)6, 4Pal10, αMeL13, Orn16, K17(Z1), Aib20, Orn21, D-Glu24, αMeY25, K28(Z1), C-term NH2; Z1=AEEA2-(γ-Glu)-CO-(CH2)10-CH3) | 0.0215 nM | 93.3 nM | 0.101 nM |
| YXEGTXTSDXSIXLDXKAQXKFIXXLIXGGPSSGAPPPS (Aib2, αMeF(2F)6, 4Pal10, αMeL13, Orn16, K17(Z1), Aib20, K21(Z1), D-Glu24, αMeY25, Orn28, C-term NH2; Z1=AEEA2-(γ-Glu)-CO-(CH2)10-CH3) | 0.0131 nM | 14.3 nM | 0.119 nM |
| YXEGTXTSDXSIXLDXKAQXEXIXXLIEGGKSSGAPPPS (Aib2, αMeF(2F)6, 4Pal10, αMeL13, Orn16, K17(Z1), Aib20, 3,5FPhe22, D-Glu24, αMeY25, K31(Z1), C-term NH2; Z1=AEEA2-(γ-Glu)-CO-(CH2)12-CO2H) | 0.121 nM | 4290 nM | 1.05 nM |
| YXEGTXTSDXSIXLDXKAQXEFIXXLIEGGKSSGAPPPS (Aib2, αMeF(2F)6, hTyr10, αMeL13, Orn16, K17(Z1), Aib20, D-Glu24, αMeY25, K31(Z1), C-term NH2; Z1=AEEA2-(γ-Glu)-CO-(CH2)12-CO2H) | 0.171 nM | 2000 nM | 0.789 nM |
| YXEGTXTSDXSIXLDXKAQXEFIXXLIEGGKSSGAPPPS (Aib2, αMeF(2F)6, OMeY10, αMeL13, Orn16, K17(Z1), Aib20, D-Glu24, αMeY25, K31(Z1), C-term NH2; Z1=AEEA2-(γ-Glu)-CO-(CH2)12-CO2H) | 0.208 nM | 1920 nM | 1.15 nM |
| YXEGTXTSDXSIXLDXKAQXEFIXXLIEGGKSSGAPPPS (Aib2, αMeF(2F)6, 1Nal10, αMeL13, Orn16, K17(Z1), Aib20, D-Glu24, αMeY25, K31(Z1), C-term NH2; Z1=AEEA2-(γ-Glu)-CO-(CH2)12-CO2H) | 0.152 nM | 137 nM | 2.85 nM |
| YXEGTXTSDXSIXLDXKAQXEFIKXLIEGGPSSGAPPPS (Aib2, αMeF(2F)6, 4Pal10, αMeL13, Orn16, K17(Z1), Aib20, K24(Z1), αMeY25, C-term NH2; Z1=AEEA2-(γ-Glu)-CO-(CH2)12-CO2H) | 0.054 nM | 707 nM | 1.4 nM |
| YXEGTXTSDXSIXLDXKAQXEFIXXLIEGGKSSGAPPPS (Aib2, αMeF(2F)6, 2Nal10, αMeL13, Orn16, K17(Z1), Aib20, D-Glu24, αMeY25, K31(Z1), C-term NH2; Z1=AEEA2-(γ-Glu)-CO-(CH2)12-CO2H) | 0.297 nM | 114 nM | 4.35 nM |
